# B1: Amyloid beta A4 precursor protein-binding family B member 1-interacting protein (Mus musculus), Q8R5A3 (parent)
# chain: MGESNEDIDQMFSTLLGEMDLLTQSLGVDTLPPPDPNPPREEFNYTVGFKDLNESLNALEDQDLDALMADLVADISEAEQRTIQAQKESSQNQDRFALLRASDGQGTASGGYGASAAAIDVSHHEEALPPPPVEPMLDLLPPPPPPPPPELLSKEEEEAKAKADKIKLALEKLKEAKVKKLVVKVHMDDSSTKSLMVDERQLARDVLDNLFEKTHCDCNVDWCLYEIYPELQIERVFEDHENVVEVLSDWTRDTENKVLFLEKEERYAVFKNPQNFYLDNKGKKENKETNEKMNAKNKEYLLEESFCGTSIIVPELEGALYLKEDGKKSWKRRYFLLRASGIYYVPKGKTKTSRDLACFIQFENVNIYYGIQCKMKYKAPTDHCFVLKHPQIQKESQYIKYLCCDDARTLSQWVMGIRIAKYGKTLYDNYQRAVARAGLASRWTNLGTVGTPMPAQPSTVSSGLKTGTSQPNGQMPQAIPSAGPPLQEAQTQIETTKDEKQGLGNHSPGATRENHRPKSSLPPPPPPVRRSSDTCGSPALPSKVKGPGTCTFPHPPENFLPPPPPPPPEEDNSGLLPPPPPPPYLEEPPDFVPPPPPPAAVEDSALPPPPPPPPCLSQEITKSSPLPPKKPLVPPKRQENQGLPGAPGNSEQDFMSDLMKALQKKRGNIP
# B2: Ras-associated and pleckstrin homology domains-containing protein 1 (Homo sapiens), Q70E73 (parent)
# chain: MEQLSDEEIDHGAEEDSDKEDQDLDKMFGAWLGELDKLTQSLDSDKPMEPVKRSPLRQETNMANFSYRFSIYNLNEALNQGETVDLDALMADLCSIEQELSSIGSGNSKRQITETKATQKLPVSRHTLKHGTLKGLSSSSNRIAKPSHASYSLDDVTAQLEQASLSMDEAAQQSVLEDTKPLVTNQHRRTASAGTVSDAEVHSISNSSHSSITSAASSMDSLDIDKVTRPQELDLTHQGQPITEEEQAAKLKAEKIRVALEKIKEAQVKKLVIRVHMSDDSSKTMMVDERQTVRQVLDNLMDKSHCGYSLDWSLVETVSELQMERIFEDHENLVENLLNWTRDSQNKLIFMERIEKYALFKNPQNYLLGKKETAEMADRNKEVLLEECFCGSSVTVPEIEGVLWLKDDGKKSWKKRYFLLRASGIYYVPKGKAKVSRDLVCFLQLDHVNVYYGQDYRNKYKAPTDYCLVLKHPQIQKKSQYIKYLCCDDVRTLHQWVNGIRIAKYGKQLYMNYQEALKRTESAYDWTSLSSSSIKSGSSSSSIPESQSNHSNQSDSGVSDTQPAGHVRSQSIVSSVFSEAWKRGTQLEESSKARMESMNRPYTSLVPPLSPQPKIVTPYTASQPSPPLPPPPPPPPPPPPPPPPPPPPLPSQSAPSAGSAAPMFVKYSTITRLQNASQHSGALFKPPTPPVMQSQSVKPQILVPPNGVVPPPPPPPPPPTPGSAMAQLKPAPCAPSLPQFSAPPPPLKIHQVQHITQVAPPTPPPPPPIPAPLPPQAPPKPLVTIPAPTSTKTVAPVVTQAAPPTPTPPVPPAKKQPAFPASYIPPSPPTPPVPVPPPTLPKQQSFCAKPPPSPLSPVPSVVKQIASQFPPPPTPPAMESQPLKPVPANVAPQSPPAVKAKPKWQPSSIPVPSPDFPPPPPESSLVFPPPPPSPVPAPPPPPPPTASPTPDKSGSPGKKTSKTSSPGGKKPPPTPQRNSSIKSSSGAEHPEPKRPSVDSLVSKFTPPAESGSPSKETLPPPAAPPKPGKLNLSGVNLPGVLQQGCVSAKAPVLSGRGKDSVVEFPSPPSDSDFPPPPPETELPLPPIEIPAVFSGNTSPKVAVVNPQPQQWSKMSVKKAPPPTRPKRNDSTRLTQAEISEQPTMATVVPQVPTSPKSSLSVQPGFLADLNRTLQRKSITRHGSLSSRMSRAEPTATMDDMALPPPPPELLSDQQKAGYGGSHISGYATLRRGPPPAPPKRDQNTKLSRDW
# Variants of: B1
# Conditions: with tln1_mouse Tln1, P26039
# tln1_mouse Tln1, P26039, sequence (P26039 whole entry): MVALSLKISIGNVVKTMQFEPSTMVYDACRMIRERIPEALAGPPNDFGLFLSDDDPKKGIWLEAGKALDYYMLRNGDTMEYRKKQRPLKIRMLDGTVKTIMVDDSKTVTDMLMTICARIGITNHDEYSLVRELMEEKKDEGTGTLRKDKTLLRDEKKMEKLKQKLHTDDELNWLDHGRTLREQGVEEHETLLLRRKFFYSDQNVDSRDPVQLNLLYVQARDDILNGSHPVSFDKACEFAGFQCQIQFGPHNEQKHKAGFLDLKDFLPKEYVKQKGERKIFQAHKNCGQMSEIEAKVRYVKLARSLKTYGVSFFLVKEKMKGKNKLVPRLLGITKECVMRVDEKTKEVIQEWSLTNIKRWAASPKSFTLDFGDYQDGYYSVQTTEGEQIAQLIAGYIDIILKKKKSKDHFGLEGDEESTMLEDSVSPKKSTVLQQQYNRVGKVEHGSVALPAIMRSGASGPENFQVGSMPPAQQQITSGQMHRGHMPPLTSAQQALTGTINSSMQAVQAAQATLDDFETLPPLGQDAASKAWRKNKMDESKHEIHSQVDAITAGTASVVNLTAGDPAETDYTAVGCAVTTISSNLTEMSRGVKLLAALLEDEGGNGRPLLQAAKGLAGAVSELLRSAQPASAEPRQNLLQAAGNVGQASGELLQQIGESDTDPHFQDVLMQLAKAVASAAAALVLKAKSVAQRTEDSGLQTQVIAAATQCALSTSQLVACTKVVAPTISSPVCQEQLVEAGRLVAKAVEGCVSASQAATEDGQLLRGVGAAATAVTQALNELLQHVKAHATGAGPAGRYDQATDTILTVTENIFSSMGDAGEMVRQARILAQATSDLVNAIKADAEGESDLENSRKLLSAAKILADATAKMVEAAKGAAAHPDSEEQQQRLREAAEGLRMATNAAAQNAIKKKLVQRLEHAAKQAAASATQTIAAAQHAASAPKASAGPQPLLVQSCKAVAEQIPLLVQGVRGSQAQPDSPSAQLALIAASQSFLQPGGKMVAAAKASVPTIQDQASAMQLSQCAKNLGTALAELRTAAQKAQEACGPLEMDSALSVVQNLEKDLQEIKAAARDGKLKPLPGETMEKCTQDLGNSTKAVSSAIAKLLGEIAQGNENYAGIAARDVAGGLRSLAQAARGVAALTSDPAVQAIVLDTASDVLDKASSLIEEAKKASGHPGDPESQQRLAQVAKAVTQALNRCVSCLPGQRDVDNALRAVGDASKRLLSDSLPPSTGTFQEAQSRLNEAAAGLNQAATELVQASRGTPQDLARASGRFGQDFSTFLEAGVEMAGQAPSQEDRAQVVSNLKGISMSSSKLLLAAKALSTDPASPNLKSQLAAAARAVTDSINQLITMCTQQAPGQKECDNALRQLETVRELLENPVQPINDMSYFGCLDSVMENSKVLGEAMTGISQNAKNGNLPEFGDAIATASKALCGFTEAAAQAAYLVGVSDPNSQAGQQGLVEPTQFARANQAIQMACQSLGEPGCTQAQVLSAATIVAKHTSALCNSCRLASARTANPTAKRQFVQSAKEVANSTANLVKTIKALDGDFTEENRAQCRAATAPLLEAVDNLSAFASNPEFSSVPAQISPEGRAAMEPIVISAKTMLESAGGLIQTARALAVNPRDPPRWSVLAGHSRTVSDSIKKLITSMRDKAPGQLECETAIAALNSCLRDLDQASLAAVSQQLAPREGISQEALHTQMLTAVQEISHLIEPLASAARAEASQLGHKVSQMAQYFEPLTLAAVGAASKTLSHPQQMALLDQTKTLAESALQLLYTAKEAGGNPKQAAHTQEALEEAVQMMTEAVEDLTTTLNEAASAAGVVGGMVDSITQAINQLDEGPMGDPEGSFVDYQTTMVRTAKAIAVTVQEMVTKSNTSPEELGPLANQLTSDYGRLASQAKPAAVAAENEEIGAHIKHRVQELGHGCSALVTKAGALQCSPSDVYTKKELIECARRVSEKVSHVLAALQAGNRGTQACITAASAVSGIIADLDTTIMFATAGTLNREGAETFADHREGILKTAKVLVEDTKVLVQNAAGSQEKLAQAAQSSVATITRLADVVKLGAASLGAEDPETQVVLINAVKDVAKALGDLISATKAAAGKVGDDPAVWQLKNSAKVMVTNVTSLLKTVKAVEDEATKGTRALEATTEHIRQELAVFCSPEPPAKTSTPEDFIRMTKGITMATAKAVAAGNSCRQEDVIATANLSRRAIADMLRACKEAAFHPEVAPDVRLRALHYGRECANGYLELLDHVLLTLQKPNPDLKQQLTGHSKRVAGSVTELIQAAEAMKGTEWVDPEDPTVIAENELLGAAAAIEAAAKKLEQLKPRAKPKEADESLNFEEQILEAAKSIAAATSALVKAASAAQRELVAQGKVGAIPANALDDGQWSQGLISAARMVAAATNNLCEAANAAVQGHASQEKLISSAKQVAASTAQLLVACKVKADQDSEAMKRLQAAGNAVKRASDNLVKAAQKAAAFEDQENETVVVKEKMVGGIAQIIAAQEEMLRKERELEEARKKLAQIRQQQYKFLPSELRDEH
row,Variant,effect of a mutation on the interaction
1,D9A,decreasing interaction strength
2,S13G,disrupting interaction strength

# The next lines start with the values.
row,effect of a mutation on the interaction,Variant
1,disrupting interaction strength,E18A
2,disrupting interaction strength,L15Y

# Variants of: B1
# Conditions: with tln1_mouse Tln1, P26039
# Remark: another data set of the same source
row,effect of a mutation on the interaction,Variant
1,decreasing interaction strength,S13G

# Variants of: B2
# Conditions: with tln1_mouse Tln1, P26039
row,effect of a mutation on the interaction,Variant
1,increasing interaction strength,G29S

# Reference: IntAct's records for PubMed 25465129
